{"source": "paper PMC4837482", "about": "“The complex binding mode of the peptide hormone H2 relaxin to its receptor RXFP1” (Nature Communications, 2016)", "assay_in_all_cases": "cAMP activity assay (pCRE β-galactosidase reporter), transfected HEK293T cells", "type_in_all_cases": "cell-based", "key": {"[1]": {"biological_target": "T1, RXFP1 C40A^ins (Homo sapiens, UniProt Q9HBX9, INS62A)", "T1 construct": "cells expressing full-length RXFP1 and mutants; expressed in transfected cells; host or cells: HEK293T", "T1 sequence (Q9HBX9 with tags, fused parts or gaps INS62A limits assumed)": "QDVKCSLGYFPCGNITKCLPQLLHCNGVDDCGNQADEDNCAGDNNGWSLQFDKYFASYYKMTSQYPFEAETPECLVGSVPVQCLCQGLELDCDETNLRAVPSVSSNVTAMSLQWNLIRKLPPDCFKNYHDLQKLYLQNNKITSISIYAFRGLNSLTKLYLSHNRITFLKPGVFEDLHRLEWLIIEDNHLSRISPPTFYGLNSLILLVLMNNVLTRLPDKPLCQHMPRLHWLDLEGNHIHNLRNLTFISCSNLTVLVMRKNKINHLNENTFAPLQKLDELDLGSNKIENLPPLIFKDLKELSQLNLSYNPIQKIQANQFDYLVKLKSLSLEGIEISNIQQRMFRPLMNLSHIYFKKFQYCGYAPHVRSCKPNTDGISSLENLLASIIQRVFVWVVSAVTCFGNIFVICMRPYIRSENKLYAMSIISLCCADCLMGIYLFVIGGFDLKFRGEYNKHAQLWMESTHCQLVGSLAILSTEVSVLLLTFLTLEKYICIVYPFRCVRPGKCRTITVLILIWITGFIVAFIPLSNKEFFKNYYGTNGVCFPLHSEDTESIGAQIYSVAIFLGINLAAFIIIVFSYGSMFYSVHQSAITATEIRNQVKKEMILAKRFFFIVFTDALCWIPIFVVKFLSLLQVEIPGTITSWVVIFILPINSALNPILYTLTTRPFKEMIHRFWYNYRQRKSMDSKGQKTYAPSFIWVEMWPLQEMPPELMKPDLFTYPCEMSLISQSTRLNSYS", "conditions": "construct C40A^ins", "summary_of_the_method": "(§1)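 HEK293T cells transfected with mutant RXFP1 and pCRE β-galactosidase reporter, stimulated with H2 relaxin in minimal media/1% DMSO. β-Galactosidase read with chlorophenol red-β-D-galactopyranoside at 570 nm; responses pooled from ≥3 triplicate experiments as % of 5 μM forskolin maximum.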"}, "[2]": {"biological_target": "T2, RXFP1 G45A (Homo sapiens, UniProt Q9HBX9, G67A)", "T2 construct": "transiently transfected human embryonic kidney (HEK) 293T cells expressing full-length RXFP1 and mutants; expressed in transfected cells; host or cells: HEK293T", "T2 sequence (Q9HBX9 23-757 G67A limits assumed)": "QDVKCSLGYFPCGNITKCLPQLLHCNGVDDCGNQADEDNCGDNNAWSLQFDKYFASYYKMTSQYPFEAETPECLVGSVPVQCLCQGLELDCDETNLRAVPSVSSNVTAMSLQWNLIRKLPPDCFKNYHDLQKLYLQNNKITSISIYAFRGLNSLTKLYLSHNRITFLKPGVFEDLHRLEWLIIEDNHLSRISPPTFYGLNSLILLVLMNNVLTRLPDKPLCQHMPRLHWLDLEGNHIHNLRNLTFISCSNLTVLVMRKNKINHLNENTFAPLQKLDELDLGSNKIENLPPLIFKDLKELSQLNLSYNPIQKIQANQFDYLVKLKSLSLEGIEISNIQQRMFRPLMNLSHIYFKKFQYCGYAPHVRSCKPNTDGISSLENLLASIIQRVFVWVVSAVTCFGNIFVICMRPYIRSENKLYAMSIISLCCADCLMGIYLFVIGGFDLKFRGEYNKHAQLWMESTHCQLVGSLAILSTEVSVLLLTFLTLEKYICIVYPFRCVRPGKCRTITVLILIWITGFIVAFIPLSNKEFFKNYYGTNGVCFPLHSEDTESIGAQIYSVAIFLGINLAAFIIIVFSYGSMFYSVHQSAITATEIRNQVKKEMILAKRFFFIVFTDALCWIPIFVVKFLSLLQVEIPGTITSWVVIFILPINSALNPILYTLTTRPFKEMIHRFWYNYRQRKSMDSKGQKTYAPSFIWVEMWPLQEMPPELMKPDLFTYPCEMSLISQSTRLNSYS", "conditions": "construct G45A, ±s.e.m.", "summary_of_the_method": "as §1"}, "[3]": {"biological_target": "T3, RXFP1 N43N44-AA (Homo sapiens, UniProt Q9HBX9, N65A/N66A)", "T3 construct": "transiently transfected human embryonic kidney (HEK) 293T cells expressing full-length RXFP1 and mutants; expressed in transfected cells; host or cells: HEK293T", "T3 sequence (Q9HBX9 23-757 N65A/N66A limits assumed)": "T2 sequence (Q9HBX9 23-757 G67A limits assumed) with N43A, N44A, A45G", "summary_of_the_method": "as §1"}, "[4]": {"conditions": "percentage of maximum response to 5 μM Forskolin"}}, "note": "Positions count from the first letter of the chain named.", "data": [{"substance": "H2 relaxin: two-chain 6-kDa peptide hormone structurally related to insulin; recombinant human gene-2 H2 relaxin provided by Corthera", "values": [{"measurement": "H2 relaxin pEC50", "setting": "[1]; cAMP reporter", "result": "No activity"}, {"measurement": "H2 relaxin Emax", "setting": "[1]; [4]", "result": "No activity"}, {"measurement": "H2 relaxin pEC50", "setting": "[2]; cAMP reporter", "result": "7.48±0.57 (4)"}, {"measurement": "H2 relaxin Emax", "setting": "[2]; [4]", "result": "135.94±31.68 (4) %"}, {"measurement": "loss of H2 relaxin-stimulated cAMP activity", "setting": "[3]; N43A/N44A RXFP1 versus wild-type RXFP1", "result": 500, "unit": "fold"}, {"measurement": "H2 relaxin pEC50", "setting": "[3]; construct N43N44-AA, cAMP reporter, ±s.e.m.", "result": "8.29±0.63 (3)"}, {"measurement": "H2 relaxin Emax", "setting": "[3]; construct N43N44-AA, percentage of maximum response to 5 μM Forskolin, ±s.e.m.", "result": "118.90±12.81 (3) %"}]}]}
